Source: patent US20210269532A1 (SYMPHOGEN A S, published 2021)
Changes are numbered by the printed parent chain.

T1: His-tagged human AXL extracellular domain (recombinant) (human, UniProt P30530 26-451)
T1 construct: treated as one molecule; also called human AXL ECD; AXL-His ECD; not shown: His tag
T1 sequence: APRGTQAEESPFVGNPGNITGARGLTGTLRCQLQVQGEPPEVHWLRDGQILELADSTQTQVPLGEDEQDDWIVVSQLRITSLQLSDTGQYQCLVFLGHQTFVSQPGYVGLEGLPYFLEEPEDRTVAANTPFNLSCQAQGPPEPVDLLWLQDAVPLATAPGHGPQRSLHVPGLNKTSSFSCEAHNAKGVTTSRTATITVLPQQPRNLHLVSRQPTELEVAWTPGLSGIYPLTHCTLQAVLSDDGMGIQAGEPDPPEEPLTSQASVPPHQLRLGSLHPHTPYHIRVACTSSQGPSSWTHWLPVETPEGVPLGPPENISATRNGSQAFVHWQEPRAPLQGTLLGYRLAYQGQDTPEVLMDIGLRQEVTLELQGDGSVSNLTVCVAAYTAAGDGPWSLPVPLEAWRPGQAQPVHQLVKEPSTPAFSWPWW

T2: human AXL extracellular domain transiently expressed on CHO-S cells (human, UniProt P30530 26-451)
T2 construct: also called human AXL ECD on CHO-S cells
T2 sequence: T1 sequence

B1: 22883 (antibody, human IgG1, kappa, L234A L235A, V domains shown)
VH: EVQLVESGGGLVQPGGSLRLSCAASGFTFSSYAMSWVRQAPGKGLEWVSAISGGGDYTYYADSVKGRFTISRDNSKNTLYLQMNSLRAEDTAVYYCAKEEWELRGPFRYWGQGTLVTVSS
VL: DIQMTQSPSTLSASVGDRVTITCRASQSISSWLAWYQQKPGKAPKFLIYKASSLESGVPSRFSGSGSGTEFTLTISSLQPDDFATYYCQQYNGFSWTFGQGTKVEIKR
notes: Fully human IgG1-LALA, kappa
B2: 23203_3 (antibody, human IgG1, kappa, L234A L235A, V domains shown)
VH: QVQLQQWGAGLLKPSETLSLTCTVSGGSFSGYYWTWIRQPPGKGLEWIGEINHAGSTNYNPSLKSRVTISVDTSKNQFSLKLSSVTAADTAVYYCSSREYSSRWHFDYWGQGTLVTVSS
VL: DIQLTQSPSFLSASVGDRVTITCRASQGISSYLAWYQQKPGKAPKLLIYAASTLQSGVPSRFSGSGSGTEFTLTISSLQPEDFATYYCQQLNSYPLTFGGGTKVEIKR
notes: Fully human IgG1-LALA, kappa
B3: 23203_4 (antibody, human IgG1, kappa, L234A L235A, V domains shown)
VH: B2 VH with T23A, S25Y
VL: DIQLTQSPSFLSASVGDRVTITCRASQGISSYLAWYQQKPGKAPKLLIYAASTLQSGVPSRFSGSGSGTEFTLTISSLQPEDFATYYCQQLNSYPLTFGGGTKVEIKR
notes: Fully human IgG1-LALA, kappa
B4: 23203_2 (antibody, human IgG1, kappa, L234A L235A, V domains shown)
VH: B2 VH with T23A, S25Y, A54S
VL: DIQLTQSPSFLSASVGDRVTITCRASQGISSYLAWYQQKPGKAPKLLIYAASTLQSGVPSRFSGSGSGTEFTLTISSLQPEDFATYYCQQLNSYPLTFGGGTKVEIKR
notes: Fully human IgG1-LALA, kappa
B5: 23203_1 (antibody, human IgG1, kappa, L234A L235A, V domains shown)
VH: B2 VH with Q6E, W7S, A9P, L12V, T35S
VL: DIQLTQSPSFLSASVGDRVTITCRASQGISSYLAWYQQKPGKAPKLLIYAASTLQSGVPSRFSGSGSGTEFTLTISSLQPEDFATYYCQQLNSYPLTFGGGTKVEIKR
notes: Fully human IgG1-LALA, kappa
B6: 22995 (antibody, human IgG1, kappa, L234A L235A, V domains shown)
VH: EVQLVESGGSLVQPGGSLRLSCAASGFTFSSSAMSWVRQAPGKGLEWVSTISGSDSSTYDADSVKGRSTISRDNSKNTLYLQMNSLRADDTAVYYCAKKGAYCSGTICYDPFDYWGQGTLVTVSS
VL: DIVLTQSPVLAVSLGQRATISCRASQSVSISSINLMHWYQQKPGQQPKLLIYRASNLASGIPARFSGSGSGTDFTLTIDPVQADDIAAYYCQQSRESPLTFGGGTKVEIKR
notes: Fully human IgG1-LALA, kappa

target: T1, His-tagged human AXL extracellular …; experiment: SPR (IBIS MX96), antibody captured, monovalent His-tagged AXL ECD in solution, 1:1 fit
Protocol: (§1) The kinetic binding analysis was performed by surface plasmon resonance (SPR), using a Continuous Flow Microspotter (CFM, Wasatch Microfluidics, Salt Lake City, US) combined with an IBIS MX96 SPR instrument (IBIS Technologies, The Netherlands).
(§2) His-tagged human and cynomolgus AXL ECD were expressed in Expi293F cells and purified by Ni-NTA chromatography. Binding kinetics were measured under monovalent antigen conditions by immobilizing anti-AXL antibodies and keeping the monovalent AXL antigen in solution. Antibodies were captured onto a G-a-hu-IgG Fc SensEye® (Ssens BV, The Netherlands) for 15 minutes using a Continuous Flow Microspotter (CFM, Wasatch Microfluidics, Salt Lake City, US). After spotting, the SensEye® was positioned in the IBIS MX96 biosensor and captured proteins were fixed to the surface using FixIT kit (Ssens BV, The Netherlands). Kinetic analysis was performed by applying kinetic titration series (Karlsson et al., Anal Biochem. 349(1):136-47 (2006)), with antigen injections at increasing concentrations from 0.14 nM to 100 nM. Antigen association and dissociation was performed for 15 minutes. After each antigen injection series, the surface was regenerated by 100 mM H₃PO₄, pH 3 regeneration buffer. The recorded binding responses were fitted to a simple Langmuir 1:1 binding model with Scrubber 2 software for calculation of the on-rate (kₒₙ or ka), off-rate (koff or kd) and affinity (KD) constants.

Row | Kd | koff | kon | Binder
1 | 9.6 nM | 0.00031 s⁻¹ | 32000 M⁻¹ s⁻¹ | B1
2 | 15 nM | 0.0016 s⁻¹ | 110000 M⁻¹ s⁻¹ | B2
3 | 25 nM | 0.0023 s⁻¹ | 90000 M⁻¹ s⁻¹ | B3
4 | 11 nM | 0.0016 s⁻¹ | 140000 M⁻¹ s⁻¹ | B4
5 | 15 nM | 0.0021 s⁻¹ | 140000 M⁻¹ s⁻¹ | B5
6 | 0.69 nM | 0.00057 s⁻¹ | 820000 M⁻¹ s⁻¹ | B6

target: T3, His-tagged cynomolgus AXL extracellular domain (recombinant) (cynomolgus); experiment: as above
T3 construct: extracellular domain; Expressed in Expi293F cells, purified by Ni-NTA; also called cynomolgus AXL ECD
Protocol: as §1, §2

Row | Kd | koff | kon | Binder
7 | 7.2 nM | 0.0002 s⁻¹ | 28000 M⁻¹ s⁻¹ | B1
8 | 13 nM | 0.0018 s⁻¹ | 140000 M⁻¹ s⁻¹ | B2
9 | 15 nM | 0.0021 s⁻¹ | 150000 M⁻¹ s⁻¹ | B3
10 | 15 nM | 0.0016 s⁻¹ | 110000 M⁻¹ s⁻¹ | B4
11 | 13 nM | 0.0024 s⁻¹ | 180000 M⁻¹ s⁻¹ | B5
12 | 80 nM | 0.0011 s⁻¹ | 14000 M⁻¹ s⁻¹ | B6

target: T2, human AXL extracellular domain …; experiment: flow cytometry, serial dilution on CHO-S cells transiently expressing human AXL ECD, AF647 anti-human IgG secondary, GeoMean (RL1-H)
Protocol: (§3) Six anti-human AXL antibodies and reference antibody analogues were evaluated by flow cytometry for in vitro binding to human or cynomolgus AXL extracellular domain transiently expressed on CHO-S cells. For comparison, reference antibody analogues were included in the evaluation. All antibodies were incubated in serial dilutions together with the transiently transfected CHO-S cells for 30 min at 4° C. Following two washing steps, the cells were incubated with AF647-conjugated secondary anti-human IgG (H+L) antibody for 30 min at 4° C. A final washing step was done prior to acquisition of the cells on an iQue Plus screener. Results were calculated by GrafPad Prism software.

Row | EC50 (read off the curve) | Binder
13 | ~0.07 µg/mL | B1
14 | ~0.02 µg/mL | B2
15 | ~0.02 µg/mL | B3
16 | ~0.02 µg/mL | B4
17 | ~0.02 µg/mL | B5
18 | ~0.007 µg/mL | B6

target: T4, cynomolgus AXL extracellular domain transiently expressed on CHO-S cells (cynomolgus); experiment: flow cytometry, serial dilution on CHO-S cells transiently expressing cynomolgus AXL ECD, AF647 anti-human IgG secondary, GeoMean (RL1-H)
T4 construct: extracellular domain; also called cynomolgus AXL ECD on CHO-S cells
Protocol: as §3

Row | EC50 (read off the curve) | Binder
19 | ~0.05 µg/mL | B1
20 | ~0.02 µg/mL | B2
21 | ~0.02 µg/mL | B3
22 | ~0.02 µg/mL | B4
23 | ~0.02 µg/mL | B5
24 | ~0.4 µg/mL | B6
